Laboratory results: publication PMC2763025 (Insect biochemistry and molecular biology, 2009)

Target: Cry11Aa toxin, trypsin-activated (Bacillus thuringiensis subsp. …, UniProt P21256 1-643)
Test: ELISA

B1: truncated AaeAPN1 fragment AaeAPN1t (amino acids 525-778) (domain or fragment)
chain: RTYETGDIIISQERFISDRKVPNTNVWMIPYNYVHQSKADFDDLSTFSWLSTKAARINTEVPANEWIIFNKQQVGYYRVNYDANNWELITNALINNLSSIDRLNRAQLIDDAYWLARSGRLDIEVLMKLLTYLKDETEYAPWTAANNVLSYFNGKLRGTPAYKDFTTMVDHLIKKVYKTLDVTAVSDTEPLLHKYLKQTISTWACLIGNEDCLKRTKEALQKEVTEGIPVHPDVATVVYCNGLRTADVAEYQYL
  Kd: 8.5 nM
